{"source": "paper PMC4201348", "about": "(ACS Chemical Biology, 2014)"}
{"target": "soluble, recombinant SUDV GP (Boniface variant), residues 33-649 (Sudan ebolavirus (Boniface variant), UniProt Q66814)"}
{"binder": "31C7 (antibody, V domains shown) VH: EVQLVESGGGLVQPGGSLRLSCAASGFAFNYYDMFWVRQAPGKGLEWVAYINPGGGNTYYADSVKGRFTISADTSKNTAYLQMNSLRAEDTAVYYCARQLYGNSFLDYWGQGTLVTV VL: DIQMTQSPSSLSASVGDRVTITCKASQDVTTAVAWYQQKPGKAPKLLIYWASSRYPGVPSRFSGSGSGTDFTLTISSLQPEDFATYYCQQHYSTPLTFGQGTKVEI", "binding result": "binds"}
{"binder": "35B5 (antibody, V domains shown) VH: EVQLVESGGGLVQPGGSLRLSCAASGFAFNYYDMFWVRQAPGKGLEWVAYINSGGGNTYYPDSVKGRFTISADTSKNTAYLQMNSLRAEDTAVYYCARQLYGNSFFDYWGQGTLVTV VL: DIQMTQSPSSLSASVGDRVTITCKASQDVTTAVAWYQQKPGKAPKLLIYWASTRHTGVPSRFSGSGSGTDFTLTISSLQPEDFATYYCQQHYSTPLTFGQGTKVEI", "binding result": "binds"}
{"binder": "51B6 (antibody, V domains shown) VH: EVQLVESGGGLVQPGGSLRLSCAASGFAFNYYDLYWVRQAPGKGLEWVAYINPGGGNTYYPDSVKGRFTISADTSKNTAYLQMNSLRAEDTAVYYCARQLYGNSFFDYWGQGTLVTV VL: DIQMTQSPSSLSASVGDRVTITCKASQDVTTAVAWYQQKPGKAPKLLIYWASTRHTGVPSRFSGSGSGTDFTLTISSLQPEDFATYYCQQHYSTPLTFGQGTKVEI", "binding result": "binds"}
{"binder": "34F5 (antibody, V domains shown) VH: EVQLVESGGGLVQPGGSLRLSCAASGFAFNYYDMFWVRQAPGKGLEWVAYINSGGGNTYYPDSVKGRFTISADTSKNTAYLQMNSLRAEDTAVYYCARQLYGNSFFDYWGQGTLVTV VL: DIQMTQSPSSLSASVGDRVTITCKASQDVTTAVAWYQQKPGKAPKLLIYWASARHRGVPSRFSGSGSGTDFTLTISSLQPEDFATYYCQQHYSTPLTFGQGTKVEI", "binding result": "binds"}
